How the values were obtained:
HLA-A*24:03 = experiment: IEDB peptide-MHC binding, purified MHC/direct/fluorescence; filed as Kd, often an IC50 or EC50 that approximates it; ≥ and ≤ were set here for values at or beyond the usual limits of such assays
HLA-A*02:03 = experiment: as above
HLA-B*39:01 [1] = experiment: as above
HLA-A*02:16 = experiment: as above
HLA-A*23:01 = experiment: as above
HLA-A*02:12 = experiment: as above
HLA-A*69:01 [2] = experiment: as above
HLA-B*15:17 = experiment: as above
HLA-B*46:01 = experiment: as above
HLA-B*18:01 = experiment: as above
HLA-A*26:01 [3] = experiment: as above
HLA-B*51:01 [4] = experiment: as above
HLA-B*35:01 = experiment: as above
HLA-A*68:02 = experiment: as above
HLA-A*02:19 = experiment: as above
HLA-B*15:01 = experiment: as above
HLA-A*02:01 = experiment: as above
HLA-B*27:03 [5] = experiment: as above
HLA-B*57:01 = experiment: as above
HLA-A*03:01 = experiment: as above
HLA-A*02:11 = experiment: as above
HLA-A*29:02 = experiment: as above
HLA-B*07:02 = experiment: as above
HLA-C*12:03 = experiment: as above
HLA-B*15:02 [6] = experiment: IEDB peptide-MHC binding, purified MHC/competitive/fluorescence; filed as Kd, often an IC50 or EC50 that approximates it; ≥ and ≤ were set here for values at or beyond the usual limits of such assays; conditions: source organism: Shigella boydii CDC 3083-94
HLA-A*80:01 = experiment: IEDB peptide-MHC binding, purified MHC/direct/fluorescence; filed as Kd, often an IC50 or EC50 that approximates it; ≥ and ≤ were set here for values at or beyond the usual limits of such assays
HLA-B*15:02 [7] = experiment: as above; conditions: source organism: Hantaan virus Q32
HLA-B*40:01 = experiment: as above
HLA-A*01:01 = experiment: as above
HLA-B*08:01 = experiment: as above
HLA-B*27:05 = experiment: as above
HLA-B*48:01 = experiment: as above; conditions: source organism: Orthohantavirus negraense
HLA-B*39:01 [8] = experiment: IEDB peptide-MHC binding, purified MHC/competitive/fluorescence; filed as Kd, often an IC50 or EC50 that approximates it; ≥ and ≤ were set here for values at or beyond the usual limits of such assays; conditions: source organism: Orthohantavirus tulaense
HLA-A*69:01 [9] = experiment: as above; conditions: source organism: Orthohantavirus tulaense
HLA-A*26:01 [10] = experiment: as above; conditions: source organism: Orthohantavirus tulaense
HLA-B*51:01 [11] = experiment: as above; conditions: source organism: Orthohantavirus tulaense
HLA-B*27:03 [12] = experiment: as above; conditions: source organism: Orthohantavirus tulaense
HLA-B*58:01 = experiment: IEDB peptide-MHC binding, purified MHC/direct/fluorescence; filed as Kd, often an IC50 or EC50 that approximates it; ≥ and ≤ were set here for values at or beyond the usual limits of such assays; conditions: source organism: Cryptosporidium parvum
HLA-A*31:01 = experiment: as above; conditions: source organism: Cryptosporidium parvum
HLA-A*11:01 = experiment: as above; conditions: source organism: Cryptosporidium parvum
HLA-B*44:02 = experiment: as above; conditions: source organism: Cryptosporidium parvum
HLA-A*02:50 = experiment: IEDB peptide-MHC binding, purified MHC/competitive/fluorescence; filed as Kd, often an IC50 or EC50 that approximates it; ≥ and ≤ were set here for values at or beyond the usual limits of such assays; conditions: source organism: Cryptosporidium parvum
HLA-C*08:02 = experiment: IEDB peptide-MHC binding, purified MHC/direct/fluorescence; filed as Kd, often an IC50 or EC50 that approximates it; ≥ and ≤ were set here for values at or beyond the usual limits of such assays; conditions: source organism: human gammaherpesvirus 4
HLA-C*05:01 = experiment: as above; conditions: source organism: human gammaherpesvirus 4
[13] = source organism: Coxiella burnetii Q321
[14] = source organism: Cryptosporidium parvum Iowa II
[15] = source organism: Orthohantavirus hantanense
[16] = source organism: Toxoplasma gondii RH
[17] = source organism: Orthohantavirus tulaense
[18] = source organism: Orthohantavirus negraense
[19] = source organism: Cryptosporidium parvum

For DGAEGINPY, which Kd (HLA-A*24:03; [13]) is on record?
The Kd was no less than 20 µM.

What about the Kd (HLA-A*02:03; [13]) of the same sequence?
The Kd was no less than 20 µM.

And the Kd (HLA-B*39:01 [1]; [13])?
Its Kd is no less than 20 µM.

What about the Kd (HLA-A*02:16; [13]) of the same sequence?
The Kd was no less than 20 µM.

And the Kd (HLA-A*23:01; [13])?
Its Kd is no less than 20 µM.

And the Kd (HLA-A*02:12; [13])?
The Kd was no less than 20 µM.

What about the Kd (HLA-A*69:01 [2]; [13]) of the same sequence?
The Kd was no less than 20 µM.

And the Kd (HLA-B*15:17; [13])?
The Kd was no less than 20 µM.

What about the Kd (HLA-B*46:01; [13]) of the same sequence?
Its Kd is no less than 20 µM.

What about the Kd (HLA-B*18:01; [13]) of the same sequence?
The Kd was no less than 20 µM.

What about the Kd (HLA-A*26:01 [3]; [13]) of the same sequence?
Its Kd is no less than 20 µM.

What about the Kd (HLA-B*51:01 [4]; [13]) of the same sequence?
Its Kd is no less than 20 µM.

What about the Kd (HLA-B*35:01; [13]) of the same sequence?
The Kd was 0.267 µM.

And the Kd (HLA-A*68:02; [13])?
The Kd was no less than 20 µM.

And the Kd (HLA-A*02:19; [13])?
Its Kd is no less than 20 µM.

And the Kd (HLA-B*15:01; [13])?
Its Kd is 11 µM.

What about the Kd (HLA-A*02:01; [13]) of the same sequence?
The Kd was no less than 20 µM.

What about the Kd (HLA-B*27:03 [5]; [13]) of the same sequence?
Its Kd is no less than 20 µM.

What about the Kd (HLA-B*57:01; [13]) of the same sequence?
The Kd was no less than 20 µM.

What about the Kd (HLA-A*03:01; [13]) of the same sequence?
The Kd was no less than 20 µM.

What about the Kd (HLA-A*02:11; [13]) of the same sequence?
The Kd was no less than 20 µM.

What about the Kd (HLA-A*29:02; [13]) of the same sequence?
Its Kd is no less than 20 µM.

What about the Kd (HLA-B*07:02; [13]) of the same sequence?
Its Kd is 8.58 µM.

For FMAAFYRVM, which Kd (HLA-C*12:03; source organism: Shigella boydii CDC 3083-94) is on record?
Its Kd is no more than 0.001 µM.

And the Kd (HLA-B*15:02 [6])?
The Kd was 0.0183 µM.

How did the Kd (HLA-A*80:01; source organism: Yellow fever virus) turn out when HSEEGSRAY was run?
Its Kd is no less than 20 µM.

How did the Kd (HLA-A*02:03; [14]) turn out when LPWFLDTTI was run?
The Kd was no less than 20 µM.

And the Kd (HLA-B*39:01 [1]; [14])?
The Kd was no less than 20 µM.

What about the Kd (HLA-A*02:16; [14]) of the same sequence?
Its Kd is no less than 20 µM.

And the Kd (HLA-A*02:12; [14])?
Its Kd is no less than 20 µM.

And the Kd (HLA-B*46:01; [14])?
Its Kd is no less than 20 µM.

What about the Kd (HLA-B*18:01; [14]) of the same sequence?
The Kd was no less than 20 µM.

What about the Kd (HLA-A*26:01 [3]; [14]) of the same sequence?
Its Kd is no less than 20 µM.

And the Kd (HLA-B*51:01 [4]; [14])?
The Kd was 0.034 µM.

And the Kd (HLA-A*02:19; [14])?
The Kd was no less than 20 µM.

What about the Kd (HLA-B*15:01; [14]) of the same sequence?
The Kd was no less than 20 µM.

What about the Kd (HLA-A*02:01; [14]) of the same sequence?
Its Kd is no less than 20 µM.

And the Kd (HLA-B*27:03 [5]; [14])?
Its Kd is no less than 20 µM.

And the Kd (HLA-B*57:01; [14])?
The Kd was no less than 20 µM.

What about the Kd (HLA-A*03:01; [14]) of the same sequence?
The Kd was no less than 20 µM.

LQYAIRSVF was tested. Which Kd (HLA-B*15:02 [7]) did it give?
The Kd was 0.008 µM.

What about the Kd (HLA-B*46:01; [15]) of the same sequence?
Its Kd is 1.95 µM.

And the Kd (HLA-B*15:01; [15])?
Its Kd is 0.004 µM.

What does the source list for LTMNLVSDI?
Kd (HLA-A*24:03; [16]): ≥ 20 µM; Kd (HLA-B*39:01 [1]; [16]): ≥ 20 µM; Kd (HLA-B*15:17; [16]): 0.003 µM; Kd (HLA-B*46:01; [16]): ≥ 20 µM; Kd (HLA-B*18:01; [16]): ≥ 20 µM; Kd (HLA-A*26:01 [3]; [16]): ≥ 20 µM; Kd (HLA-B*15:01; [16]): ≥ 20 µM; Kd (HLA-B*27:03 [5]; [16]): ≥ 20 µM; Kd (HLA-B*57:01; [16]): ≥ 20 µM; Kd (HLA-A*03:01; [16]): ≥ 20 µM

Which Kd (HLA-A*24:03; [17]) does the source give for MSRKLHRYI here?
The Kd was no less than 20 µM.

What about the Kd (HLA-B*40:01; [18]) of the same sequence?
Its Kd is no less than 20 µM.

And the Kd (HLA-A*23:01; [17])?
The Kd was no less than 20 µM.

And the Kd (HLA-A*02:12; [17])?
The Kd was no less than 20 µM.

And the Kd (HLA-C*12:03; [17])?
The Kd was 0.441 µM.

What about the Kd (HLA-A*01:01; [18]) of the same sequence?
The Kd was no less than 20 µM.

What about the Kd (HLA-B*46:01; [18]) of the same sequence?
Its Kd is no less than 20 µM.

And the Kd (HLA-B*18:01; [18])?
The Kd was no less than 20 µM.

And the Kd (HLA-A*68:02; [17])?
The Kd was no less than 20 µM.

And the Kd (HLA-B*15:01; [18])?
The Kd was no less than 20 µM.

And the Kd (HLA-A*02:01; [18])?
Its Kd is no less than 20 µM.

And the Kd (HLA-B*08:01; [18])?
Its Kd is 4.71 µM.

And the Kd (HLA-A*03:01; [17])?
The Kd was no less than 20 µM.

And the Kd (HLA-A*02:11; [17])?
The Kd was no less than 20 µM.

And the Kd (HLA-A*29:02; [18])?
The Kd was no less than 20 µM.

What about the Kd (HLA-B*27:05; [18]) of the same sequence?
Its Kd is no less than 20 µM.

And the Kd (HLA-B*07:02; [18])?
Its Kd is no less than 20 µM.

What about the Kd (HLA-B*48:01) of the same sequence?
The Kd was no less than 20 µM.

And the Kd (HLA-B*39:01 [8])?
Its Kd is no less than 20 µM.

And the Kd (HLA-A*69:01 [9])?
The Kd was no less than 20 µM.

And the Kd (HLA-A*26:01 [10])?
Its Kd is no less than 20 µM.

And the Kd (HLA-B*51:01 [11])?
Its Kd is no less than 20 µM.

And the Kd (HLA-B*27:03 [12])?
The Kd was no less than 20 µM.

Which Kd (HLA-A*80:01; source organism: Yellow fever virus strain Ghana/Asibi/1927) does the source give for MTGVMRGNY here?
The Kd was 0.38 µM.

Which Kd (HLA-A*24:03; [19]) does the source give for WLPWIPQLI here?
The Kd was 3.44 µM.

What about the Kd (HLA-B*40:01; [19]) of the same sequence?
The Kd was no less than 20 µM.

What about the Kd (HLA-B*58:01) of the same sequence?
The Kd was no less than 20 µM.

What about the Kd (HLA-A*69:01 [2]; [19]) of the same sequence?
Its Kd is 0.415 µM.

And the Kd (HLA-A*01:01; [19])?
The Kd was no less than 20 µM.

What about the Kd (HLA-A*26:01 [3]; [19]) of the same sequence?
Its Kd is no less than 20 µM.

What about the Kd (HLA-B*35:01; [19]) of the same sequence?
The Kd was 16 µM.

And the Kd (HLA-B*15:01; [19])?
Its Kd is no less than 5 µM.

And the Kd (HLA-A*31:01)?
Its Kd is no less than 20 µM.

And the Kd (HLA-A*02:01; [19])?
Its Kd is 1.24 µM.

And the Kd (HLA-A*11:01)?
Its Kd is no less than 20 µM.

What about the Kd (HLA-B*08:01; [19]) of the same sequence?
Its Kd is no less than 20 µM.

And the Kd (HLA-A*03:01; [19])?
The Kd was no less than 20 µM.

What about the Kd (HLA-B*44:02) of the same sequence?
Its Kd is no less than 20 µM.

And the Kd (HLA-B*27:05; [19])?
Its Kd is no less than 20 µM.

And the Kd (HLA-A*02:50)?
The Kd was 0.0046 µM.

Which results are given for YAAPQLFPV?
Kd (HLA-C*12:03; source organism: human gammaherpesvirus 4): 0.004 µM; Kd (HLA-C*08:02): 0.069 µM; Kd (HLA-C*05:01): 0.065 µM

— the Immune Epitope Database (IEDB)
